Where no end group is shown, it is not given here. 8e = not defined here
What was measured:
Conditions in all cases: both partners purified
[1] = target: T1, Plasmodium falciparum myosin A tail domain interacting protein, residues 61–204 (PfMTIPΔ60) (Plasmodium falciparum, UniProt Q8I4W8 61-204); assay: differential scanning fluorimetry; 5 μM PfMTIPΔ60 with 200 μM peptide in buffer A (20 mM HEPES pH 7.5, 50 mM NaCl, 1 mM TCEP), 10× SYPRO Orange, 15–80 °C
T1 construct: source: 15N-labeled for NMR; not shown: His tag, N-terminal, kept
T1 sequence: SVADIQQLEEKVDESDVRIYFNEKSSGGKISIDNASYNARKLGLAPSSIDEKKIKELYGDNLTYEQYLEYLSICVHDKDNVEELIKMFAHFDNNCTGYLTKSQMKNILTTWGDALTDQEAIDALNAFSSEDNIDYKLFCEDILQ

[2] = target: T1, Plasmodium falciparum myosin A tail …; assay: protein-detected NMR (1H,15N-HSQC); preformed complex of 100 μM 15N-labeled PfMTIPΔ60 with PfmyoA(799–818), buffer B (20 mM MOPS pH 7.0, 50 mM NaCl, 1 mM TCEP), 10 % D2O, 303 K; fragments 8 or 3 added
[3] = target: T1, Plasmodium falciparum myosin A tail …; assay: ITC; 303 K; cell with about 200 μL of 20 μM PfMTIPΔ60 in buffer A (20 mM HEPES pH 7.5, 50 mM NaCl, 1 mM TCEP); peptide added in 2 μL injections from 250 μM; single site fit; n=1

B1: peptide–fragment chimera2 (fragment 8 functionality – glycine spacer – myoA tail from Leu 804) (peptide)
peptide: 8e-GLLRVQAHIRKKMVAQ
modifications: reading uncertain
notes: myosin A (PfmyoA) C-terminal tail, Plasmodium falciparum, PfmyoA(799–818) truncated at its N-terminal end to Leu 804; source: synthetic peptide (Fmoc-based solid-phase peptide synthesis)
- Tm of the complex [1]: 53.4 °C

B2: peptide PfmyoA(803–818) (peptide)
peptide: SLLRVQAHIRKKMVAQ
notes: myosin A (PfmyoA) C-terminal tail, Plasmodium falciparum, residues 803–818; also called PfmyoA tail peptide; positive control PfmyoA tail peptide
- ΔTm [1]: 15.3 °C

B3: PfmyoA(799–818) (peptide)
peptide: KNIPSLLRVQAHIRKKMVAQ
notes: myosin A (PfmyoA) C-terminal tail, Plasmodium falciparum, residues 799–818; also called myoA tail; myoA tail peptide
- binding result [2]: binds

B4: peptide–fragment chimera1 (fragment 8 functionality – glycine spacer – myoA tail from Leu 805) (peptide)
peptide: 8e-GLRVQAHIRKKMVAQ
modifications: reading uncertain
notes: myosin A (PfmyoA) C-terminal tail, Plasmodium falciparum, PfmyoA(799–818) truncated at its N-terminal end to Leu 805; called the shortest chimera; source: synthetic peptide (Fmoc-based solid-phase peptide synthesis)
- Tm of the complex [1]: 47.8 °C

B5: peptide–fragment chimera3 (fragment 8 functionality – glycine spacer – myoA tail from Ser 803) (peptide)
peptide: 8e-GSLLRVQAHIRKKMVAQ
modifications: reading uncertain
notes: myosin A (PfmyoA) C-terminal tail, Plasmodium falciparum, PfmyoA(799–818) truncated at its N-terminal end to Ser 803; that chimera3 begins at Ser 803 follows from the order of the list (Leu 805, Leu 804, Ser 803); source: synthetic peptide (Fmoc-based solid-phase peptide synthesis)
- Tm of the complex [1]: 55.8 °C
- Kd [3]: 52 nM

From article PMC4506568, “Targeting a Dynamic Protein–Protein Interaction: Fragment Screening against the Malaria Myosin A Motor Complex” (Chemmedchem, 2014)
